Measured values: the supplement of paper PMC9732359
± gives the uncertainty stated by the source.

Test: protein stability index of a GFP-peptide fusion (yeast GPS) (PSI 1-4); higher = more stable; sorted into four equal gates, so the index is relative within each strain
Procedure, shortened: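 For each peptide, the protein stability index sums the read frequency in every gate after multiplying it by the gate number. Read frequencies came from plasmids that were PCR-amplified from each gate and Illumina-sequenced, with reads assigned to strains by barcodes. The gates were four equal bins of GFP/Cherry fluorescence ratio applied to mid-log yeast in leucine-free medium carrying a pooled library of tiled 17-residue yeast protein peptides fused downstream of GFP on a Cherry-expressing plasmid.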

Sequence: WKRQISYFLKLLGNCYS [SRB8]
- protein stability index (doa10∆): 1.63 ± 0.038
- protein stability index (pdr5∆): 1.82 ± 0.042
- protein stability index (san1∆): 1.69 ± 0.071
- protein stability index (ubr1∆): 1.37 ± 0.037

Sequence: DVAFADGGKTLRACAAN [YMR129W/POM152]
- protein stability index (doa10∆): 1.54 ± 0.18
- protein stability index (pdr5∆): 2.6 ± 0.19
- protein stability index (ubr1∆): 2.36 ± 0.1

Sequence: LQKAVRGHVLQFEWHQN [SNF2]
- protein stability index (doa10∆): 1.27 ± 0.043
- protein stability index (pdr5∆): 1.34 ± 0.063
- protein stability index (san1∆): 1.37 ± 0.16
- protein stability index (ubr1∆): 1.35 ± 0.058

Sequence: LKQEGAANKTVVVVGTV [RPL18A]
- protein stability index (doa10∆): 2.94 ± 0.27
- protein stability index (pdr5∆): 3.31 ± 0.11
- protein stability index (san1∆): 2.51 ± 0.11
- protein stability index (ubr1∆): 3.46 ± 0.12

Sequence: MVDVEEKSQEVEYVDPT [RPN7]
- protein stability index (doa10∆): 3.06 ± 0.22
- protein stability index (ubr1∆): 3.38 ± 0.16

Sequence: FNTNFDDEFGDLDAVFF [SNF6]
- protein stability index (doa10∆): 3 ± 0.076
- protein stability index (pdr5∆): 2.96 ± 0.059
- protein stability index (san1∆): 2.77 ± 0.054
- protein stability index (ubr1∆): 3.01 ± 0.035

Sequence: ALLKLSVKLKQKRLEAG [DIS3]
- protein stability index (doa10∆): 1.11 ± 0.077
- protein stability index (pdr5∆): 1.37 ± 0.085
- protein stability index (san1∆): 1.04 ± 0.21
- protein stability index (ubr1∆): 1.15 ± 0.099

Sequence: NLQTVHFGHCFNITDNG [GRR1]
- protein stability index (doa10∆): 1.22 ± 0.091

Sequence: TEDGWIYHGNHDVGELF [PRE2]
- protein stability index (doa10∆): 2.05 ± 0.057
- protein stability index (pdr5∆): 1.84 ± 0.049
- protein stability index (san1∆): 2 ± 0.074
- protein stability index (ubr1∆): 2.33 ± 0.043

Sequence: LQSLTSKGYVKTQFSWQ [RPS10A]
- protein stability index (doa10∆): 3.2 ± 0.1
- protein stability index (pdr5∆): 2.94 ± 0.096
- protein stability index (san1∆): 2.76 ± 0.086
- protein stability index (ubr1∆): 3.07 ± 0.065

Sequence: ISPLMKSQYNMVLRNVM [SRB8]
- protein stability index (doa10∆): 2.32 ± 0.068
- protein stability index (pdr5∆): 2.12 ± 0.12
- protein stability index (san1∆): 2.79 ± 0.1
- protein stability index (ubr1∆): 2.84 ± 0.11

Sequence: YITARIMAKRPFDKKSN [FAS1]
- protein stability index (doa10∆): 2.74 ± 0.094
- protein stability index (pdr5∆): 2.79 ± 0.078
- protein stability index (san1∆): 1.96 ± 0.12
- protein stability index (ubr1∆): 2.86 ± 0.081

Sequence: AVIESVVNQPTGKIVDV [FAS1]
- protein stability index (doa10∆): 2.49 ± 0.097
- protein stability index (pdr5∆): 2.57 ± 0.14
- protein stability index (san1∆): 2.52 ± 0.089
- protein stability index (ubr1∆): 2.39 ± 0.08

Sequence: LGNSIVKESNNYYSNKS [REC8]
- protein stability index (doa10∆): 2.68 ± 0.15
- protein stability index (san1∆): 2.94 ± 0.3

Sequence: ITIDSVVDANGCVNSLI [YMR129W/POM152]
- protein stability index (doa10∆): 3.01 ± 0.11
- protein stability index (pdr5∆): 2.91 ± 0.09
- protein stability index (san1∆): 3.05 ± 0.055
- protein stability index (ubr1∆): 2.8 ± 0.06

Sequence: SYKMNSSAADITMESVH [PRP8]
- protein stability index (doa10∆): 3.32 ± 0.11
- protein stability index (pdr5∆): 3.19 ± 0.08
- protein stability index (san1∆): 3.21 ± 0.095
- protein stability index (ubr1∆): 3.17 ± 0.067

Sequence: VTQKDICILGILDLCQL [CSI1]
- protein stability index (doa10∆): 2.59 ± 0.091
- protein stability index (pdr5∆): 2.85 ± 0.072
- protein stability index (san1∆): 2.24 ± 0.11
- protein stability index (ubr1∆): 1.29 ± 0.15

Sequence: LQAQDRAHRIGQKNEVR [SNF2]
- protein stability index (doa10∆): 3 ± 0.065
- protein stability index (pdr5∆): 3.17 ± 0.077
- protein stability index (san1∆): 2.86 ± 0.073
- protein stability index (ubr1∆): 3.18 ± 0.063

Sequence: RNVEQKLNELDELILEA [NNF1]
- protein stability index (doa10∆): 3.3 ± 0.062
- protein stability index (pdr5∆): 3.29 ± 0.059
- protein stability index (san1∆): 3.22 ± 0.039
- protein stability index (ubr1∆): 3.4 ± 0.046

Sequence: NARIYNTEGSVVYEDSL [SNF2]
- protein stability index (doa10∆): 3.1 ± 0.084
- protein stability index (pdr5∆): 3.25 ± 0.085
- protein stability index (san1∆): 2.92 ± 0.11
- protein stability index (ubr1∆): 3.25 ± 0.13

Sequence: NVFNDTPRGNHWMGSSV [YMR129W/POM152]
- protein stability index (doa10∆): 3.39 ± 0.11
- protein stability index (pdr5∆): 3.46 ± 0.099
- protein stability index (san1∆): 2.98 ± 0.075
- protein stability index (ubr1∆): 3.12 ± 0.081

Sequence: VLSDDAKKLSSFDFGNE [ARP9]
- protein stability index (doa10∆): 2.93 ± 0.055
- protein stability index (pdr5∆): 3.06 ± 0.09
- protein stability index (san1∆): 2.86 ± 0.062
- protein stability index (ubr1∆): 3.06 ± 0.056

Sequence: EEKLKANKEKKKAEKAA [RPL24A]
- protein stability index (doa10∆): 3.23 ± 0.07
- protein stability index (pdr5∆): 3.33 ± 0.11
- protein stability index (san1∆): 3.28 ± 0.043
- protein stability index (ubr1∆): 3.48 ± 0.067

Sequence: EEIKQSARNYDKFKLNE [SMC1]
- protein stability index (doa10∆): 3.25 ± 0.066
- protein stability index (pdr5∆): 3.24 ± 0.073
- protein stability index (san1∆): 3.16 ± 0.076
- protein stability index (ubr1∆): 3.31 ± 0.046

Sequence: NIWGTVRTNRFDIIEES [ECM29]
- protein stability index (doa10∆): 2.23 ± 0.23
- protein stability index (pdr5∆): 3.35 ± 0.12
- protein stability index (san1∆): 2.54 ± 0.11
- protein stability index (ubr1∆): 2.98 ± 0.12

Sequence: LKKLKAMNDACYEKVLE [BRR2]
- protein stability index (doa10∆): 3.18 ± 0.074
- protein stability index (pdr5∆): 3.26 ± 0.061
- protein stability index (san1∆): 3.12 ± 0.039
- protein stability index (ubr1∆): 3.05 ± 0.058

Sequence: LAKKWFLQHPDEEYPVK [PRP8]
- protein stability index (doa10∆): 3.23 ± 0.14
- protein stability index (pdr5∆): 3.15 ± 0.15
- protein stability index (san1∆): 3.26 ± 0.094
- protein stability index (ubr1∆): 2.89 ± 0.16

Sequence: NPRRLEIKDGRSLFLRN [YMR153W/NUP53]
- protein stability index (doa10∆): 3.27 ± 0.1
- protein stability index (pdr5∆): 2.9 ± 0.11
- protein stability index (san1∆): 3.2 ± 0.087
- protein stability index (ubr1∆): 3.22 ± 0.085

Sequence: NKQIEILTDLVNYRHFK [ITC1]
- protein stability index (doa10∆): 2.93 ± 0.042
- protein stability index (pdr5∆): 2.99 ± 0.036
- protein stability index (san1∆): 3.03 ± 0.043
- protein stability index (ubr1∆): 2.75 ± 0.036

Sequence: RVVRPKSLDAETEAEED [RPO21]
- protein stability index (doa10∆): 2.25 ± 0.19
- protein stability index (pdr5∆): 1.21 ± 0.13
- protein stability index (san1∆): 1.21 ± 0.19
- protein stability index (ubr1∆): 1.31 ± 0.29

Sequence: ISNINIPISSETTIDDL [SMC1]
- protein stability index (pdr5∆): 2.69 ± 0.17
- protein stability index (ubr1∆): 1.85 ± 0.071

Sequence: LKYSKRRSLKKQGRIKN [CSN12]
- protein stability index (doa10∆): 3.01 ± 0.064
- protein stability index (pdr5∆): 3.27 ± 0.069
- protein stability index (san1∆): 3.21 ± 0.098
- protein stability index (ubr1∆): 3.25 ± 0.036

Sequence: DEEETAEGQTNSISDFL [RPN1]
- protein stability index (doa10∆): 2.84 ± 0.14
- protein stability index (pdr5∆): 3.13 ± 0.094
- protein stability index (san1∆): 2.94 ± 0.078
- protein stability index (ubr1∆): 3.04 ± 0.069

Sequence: VYPITLSTDATSADLKS [UBP6]
- protein stability index (doa10∆): 2.32 ± 0.063
- protein stability index (pdr5∆): 2.53 ± 0.063
- protein stability index (san1∆): 2.49 ± 0.078
- protein stability index (ubr1∆): 2.4 ± 0.059

Sequence: NSAIANEQEEKSEEVKA [RPC37]
- protein stability index (doa10∆): 2.61 ± 0.08
- protein stability index (pdr5∆): 2.79 ± 0.11
- protein stability index (san1∆): 2.61 ± 0.055
- protein stability index (ubr1∆): 2.62 ± 0.08

Sequence: QVIVDIFSVHGNTVVDG [YCG1]
- protein stability index (doa10∆): 2.08 ± 0.11
- protein stability index (pdr5∆): 2.12 ± 0.068
- protein stability index (san1∆): 1.4 ± 0.2
- protein stability index (ubr1∆): 2.34 ± 0.035

Sequence: DANLNDLPETGFFENIE [IRR1]
- protein stability index (doa10∆): 3.13 ± 0.2
- protein stability index (pdr5∆): 3.24 ± 0.13
- protein stability index (san1∆): 3.35 ± 0.1
- protein stability index (ubr1∆): 3.27 ± 0.12

Sequence: LVYNMTSFEQGEITFDG [RPT4]
- protein stability index (doa10∆): 2.65 ± 0.095
- protein stability index (pdr5∆): 2.33 ± 0.079
- protein stability index (san1∆): 2.97 ± 0.085
- protein stability index (ubr1∆): 2.94 ± 0.17

Sequence: EKLAVSALEQAIIYQRG [YGL100W/SEH1]
- protein stability index (doa10∆): 2.04 ± 0.097
- protein stability index (pdr5∆): 2.38 ± 0.11
- protein stability index (san1∆): 2.11 ± 0.096
- protein stability index (ubr1∆): 2.4 ± 0.12

Sequence: DNDSLTDLESLSSGESN [SIR4]
- protein stability index (doa10∆): 3.15 ± 0.096
- protein stability index (pdr5∆): 3.31 ± 0.12
- protein stability index (san1∆): 3.07 ± 0.074
- protein stability index (ubr1∆): 3.09 ± 0.073
